Laboratory results as given in article PMC6102232 (2018).

T1: NCBD1 NCBD (Mus musculus, UniProt P45481)
T1 chain: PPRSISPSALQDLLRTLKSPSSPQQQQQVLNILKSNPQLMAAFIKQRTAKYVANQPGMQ

T2: NCBD2 NCBD (Mus musculus, UniProt P45481)
T2 chain: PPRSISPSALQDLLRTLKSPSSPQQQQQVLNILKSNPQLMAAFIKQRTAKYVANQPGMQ


Tests used:
[1] = molecular target: ACTR-Avi (Avi-tagged, biotinylated, Cy3B-labelled ACTR) (human); assay: FRET or BRET
[2] = molecular target: T1, NCBD1 NCBD
[3] = molecular target: T2, NCBD2 NCBD

Kd [2] [nM]	Kd [3] [nM]	Molecule	kon [1] [M⁻¹ s⁻¹]
–	–	NCBD wt (single-cysteine variant labelled with CF680R) (domain or fragment)	2.9e+08
78	650	ACTR ACTR (protein) GTQNRPLLRNSLDDLVGPPSNLEGQSDERALLDQLHTLLSNTDATGLEEIDRALGIPELVNQGQALEPKQD	–
